Experimental data published in patent publication US20090075925A1, “Methods and Compositions Related to APOBEC-1 Expression” (priority 2006, published 2009).

Biological target: rat APOBEC-1 (endogenous, rat liver nuclear extract and McArdle cells) (rat)
Experiment: cell-based or functional assay

apoB mRNA editing in stable McArdle cell lines: 67%
Substance: rat ACF64 S154D (from UniProt Q923K9 1-586)
